Data as given in PMC4072508, “Genome-Wide Prediction and Validation of Peptides That Bind Human Prosurvival Bcl-2 Proteins” (PLoS Computational Biology, 2014).

T1: Bfl-1, Q16548
T1 chain: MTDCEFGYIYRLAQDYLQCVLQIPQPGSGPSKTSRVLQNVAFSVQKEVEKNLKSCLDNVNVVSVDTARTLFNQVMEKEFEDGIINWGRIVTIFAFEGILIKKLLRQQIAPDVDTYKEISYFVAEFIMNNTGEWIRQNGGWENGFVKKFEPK

T2: Mcl-1, Q07820
T2 chain: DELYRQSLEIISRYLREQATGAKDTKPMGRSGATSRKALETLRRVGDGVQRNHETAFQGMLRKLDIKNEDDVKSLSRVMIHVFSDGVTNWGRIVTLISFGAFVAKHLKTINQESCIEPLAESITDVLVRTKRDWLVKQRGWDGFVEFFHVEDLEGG

B1: DSN1 (peptide)
chain: RAKASSLSEELKHFADGLETDGTLQK
B2: MYBBP1A (peptide)
chain: LALLAQPSHLDRQVARSVFGHICSHL
B3: PCYT2 (peptide)
chain: HHSSQEMSSEYREYLDSFGKCPGGRN
B4: PROK2 (peptide)
chain: WVKSIRICTPMGKLLDSCHPLTRKVP
B5: HUWE1 (peptide)
chain: GVMTQEVGQLLQDMLDDVYQQYRSLT
B6: KIAA0664 (peptide)
chain: AEVMRQRGINMRYLLKVLELVLRSPA
B7: SOS2 (peptide)
chain: LMARPAVALHDQSIADGFKEAVRYVL
B8: CCDC68 (peptide)
chain: QASREAGAAADRNVAQRLFENYQTQS
B9: ROS1 (peptide)
chain: FGEYSGISENIILVGDDFWIPETSFI
B10: DZIP3 (peptide)
chain: NGGLLEFHKSLQEILDKNDHWFDIDP
B11: DNAH10 (peptide)
chain: SMRRNAMGVGLVFELDLFTTRHISHW
B12: FADD (peptide)
chain: APGEEDLCAAFNVICDNVGKDWRRLA
B13: TMEM214 (peptide)
chain: SFLSAHCASHDAWFGDSLTSLSQRLQ
B14: CYBB (peptide)
chain: APEEDFFSIHIRIVLDWTEGLFNACG

What follows are binders tested against Bcl-xL, Q07817 (assay: peptide SPOT array, c-Myc-tagged receptor at 1 uM or 100 nM, anti-c-Myc-Cy3).
Chain of Bcl-xL, Q07817 (Q07817 1-209): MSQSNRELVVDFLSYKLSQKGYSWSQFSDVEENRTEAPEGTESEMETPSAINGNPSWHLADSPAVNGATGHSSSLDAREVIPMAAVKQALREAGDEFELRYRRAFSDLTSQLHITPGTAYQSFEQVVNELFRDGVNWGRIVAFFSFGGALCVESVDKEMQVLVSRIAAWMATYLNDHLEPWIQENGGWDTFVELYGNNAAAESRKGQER

SPOT signal as a fraction of Bim BH3's signal on the same receptor and array | Binder
0.07 | B1
0.68 | B2
0.05 | B3
1.23 | B4
0.03 | B5
0.74 | B6
0.17 | B7
0.05 | B8
0.07 | B9
0.12 | B10
0.21 | B11
0.08 | B12
0.07 | B13
0.06 | B14

Biological target: T1, Bfl-1, Q16548
Assay: as above

SPOT signal as a fraction of Bim BH3's signal on the same receptor and array | Binder
0.04 | B1
0.38 | B2
0.03 | B3
0.53 | B4
0.01 | B5
0.49 | B6
0.22 | B7
0.04 | B8
0.04 | B9
0.05 | B10
0.17 | B11
0.04 | B12
0.06 | B13
0.04 | B14

Biological target: T2, Mcl-1, Q07820
Assay: as above

SPOT signal as a fraction of Bim BH3's signal on the same receptor and array | Binder
0.05 | B1
0.63 | B2
0.04 | B3
0.56 | B4
0.02 | B5
0.71 | B6
0.45 | B7
0.04 | B8
0.04 | B9
0.06 | B10
0.18 | B11
0.16 | B12
0.05 | B13
0.04 | B14
